Reference: patent publication US20220411483A1 (Chugai, published 2022)

T1: FcγRIIb extracellular domain with C-terminal His tag (human, UniProt P31994 43-217)
T1 construct: extracellular domain; also called FcgRIIb
T1 sequence (looked up): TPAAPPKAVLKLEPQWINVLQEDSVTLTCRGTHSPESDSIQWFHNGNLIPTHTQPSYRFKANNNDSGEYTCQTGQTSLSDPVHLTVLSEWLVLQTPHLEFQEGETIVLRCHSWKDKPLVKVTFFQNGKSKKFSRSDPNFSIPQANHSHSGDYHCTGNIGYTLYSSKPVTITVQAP

T2: FcγRIIa R type extracellular domain with C-terminal His tag (human, UniProt P12318 34-217)
T2 construct: extracellular domain; also called FcgRIIaR
T2 sequence (looked up): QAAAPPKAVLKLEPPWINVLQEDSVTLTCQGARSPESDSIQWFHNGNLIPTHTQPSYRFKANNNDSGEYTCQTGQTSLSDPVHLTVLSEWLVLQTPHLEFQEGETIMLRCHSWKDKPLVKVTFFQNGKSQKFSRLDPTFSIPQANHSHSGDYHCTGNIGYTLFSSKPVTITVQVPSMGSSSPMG


How the values were obtained:
Test in all cases: SPR (Biacore), FcgR as analyte
[1] = molecular target: T1, FcγRIIb extracellular domain with …
[2] = molecular target: T3, FcγRIa extracellular domain with C-terminal His tag (human, UniProt P12314 16-292)
T3 construct: also called FcgRIa

[3] = molecular target: T2, FcγRIIa R type extracellular domain …

T3 sequence (P12314 16-292): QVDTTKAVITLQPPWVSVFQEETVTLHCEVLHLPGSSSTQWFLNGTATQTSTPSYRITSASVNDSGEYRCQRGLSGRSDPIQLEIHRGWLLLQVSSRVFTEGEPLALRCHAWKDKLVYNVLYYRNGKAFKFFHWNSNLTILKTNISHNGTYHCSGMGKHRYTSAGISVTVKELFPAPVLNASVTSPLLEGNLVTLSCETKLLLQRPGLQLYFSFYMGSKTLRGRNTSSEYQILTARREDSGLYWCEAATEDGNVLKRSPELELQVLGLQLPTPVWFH

Binder | Kd [1] [nM] | Kd [2] [nM] | Kd [3] [nM]
IL6R-2B261/IL6R-L (antibody, human IgG1, kappa, name in EU numbering, IgG1; alterations on IL6R-B3, EU numbering) heavy: QVQLQESGPGLVKPSETLSLTCAVSGHSISHDHAWSWVRQPPGEGLEWIGFISYSGITNYNPSLQGRVTISRDNSKNTLYLQMNSLRAEDTAVYYCARSLARTTAMDYWGEGTLVTVSSASTKGPSVFPLAPSSKSTSGGTAALGCLVKDYFPEPVTVSWNSGALTSGVHTFPAVLQSSGLYSLSSVVTVPSSSLGTQTYICNVNHKPSNTKVDKKVEPKSCDKTHTCPPCPAPDLLGGDSVFLFPPKPKDTLMISRTPEVTCVVVDVSHEDPEVKFNWYVDGVEVHNAKTKPREEQDNSTYRVVSVLTVLHQDWLNGKEYKCKVSNKALPAPIEKTISKAKGQPREPQVYTLPPSRDELTKNQVSLTCLVKGFYPSDIAVEWESNGQPENNYKTTPPVLDSDGSFFLYSKLTVDKSRWQQGNVFSCSVMHEALHNHYTQESLSLSP light: not shown | 1000 | 9 | –
IL6R-BP084/IL6R-L (antibody, human IgG1, kappa, name in EU numbering, IgG1; alterations on IL6R-B3, EU numbering) heavy: QVQLQESGPGLVKPSETLSLTCAVSGHSISHDHAWSWVRQPPGEGLEWIGFISYSGITNYNPSLQGRVTISRDNSKNTLYLQMNSLRAEDTAVYYCARSLARTTAMDYWGEGTLVTVSSASTKGPSVFPLAPSSKSTSGGTAALGCLVKDYFPEPVTVSWNSGALTSGVHTFPAVLQSSGLYSLSSVVTVPSSSLGTQTYICNVNHKPSNTKVDKKVEPKSCDKTHTCPPCPAPELLGGDSVFLFPPKPKDTLMISRTPEVTCVVVDVSHEDPEVKFNWYVDGVEVHNAKTKPREEQYNSTYRVVSVLTVLHQDWLNGKEYKCKMSNKALPKPIEKTISKAKGQPREPQVYTLPPSRDELTKNQVSLTCLVKGFYPSDIAVEWESNGQPENNYKTTPPVLDSDGSFFLYSKLTVDKSRWQQGNVFSCSVMHEALHNHYTQESLSLSP light: not shown | 500 | 7 | –
IL6R-BP130/IL6R-L (antibody, human IgG1, kappa, name in EU numbering, IgG1; alterations on IL6R-B3, EU numbering) heavy: QVQLQESGPGLVKPSETLSLTCAVSGHSISHDHAWSWVRQPPGEGLEWIGFISYSGITNYNPSLQGRVTISRDNSKNTLYLQMNSLRAEDTAVYYCARSLARTTAMDYWGEGTLVTVSSASTKGPSVFPLAPSSKSTSGGTAALGCLVKDYFPEPVTVSWNSGALTSGVHTFPAVLQSSGLYSLSSVVTVPSSSLGTQTYICNVNHKPSNTKVDKKVEPKSCDKTHTCPPCPAPDLLGGDSVFLFPPKPKDTLMISRTPEVTCVVVDVSHEDPEVKFNWYVDGVEVHNAKTKPREEQYNSTYRVVSVLTVLHQDWLNGKEYKCKMSNKALPKPIEKTISKAKGQPREPQVYTLPPSRDELTKNQVSLTCLVKGFYPSDIAVEWESNGQPENNYKTTPPVLDSDGSFFLYSKLTVDKSRWQQGNVFSCSVMHEALHNHYTQESLSLSP light: not shown | 300 | – | –
IL6R-BP206/IL6R-L (antibody, human IgG1, kappa, name in EU numbering, IgG1; alterations on IL6R-B3, EU numbering) heavy: QVQLQESGPGLVKPSETLSLTCAVSGHSISHDHAWSWVRQPPGEGLEWIGFISYSGITNYNPSLQGRVTISRDNSKNTLYLQMNSLRAEDTAVYYCARSLARTTAMDYWGEGTLVTVSSASTKGPSVFPLAPSSKSTSGGTAALGCLVKDYFPEPVTVSWNSGALTSGVHTFPAVLQSSGLYSLSSVVTVPSSSLGTQTYICNVNHKPSNTKVDKKVEPKSCDKTHTCPPCPAPDLLGGDSVFLFPPKPKDTLMISRTPEVTCVVVDVSHEDGEVKFNWYVDGVEVHNAKTKPREEQYNSTYRVVSVLTVLHQDWLNGKEYKCKVSNKALPRPIEKTISKAKGQPREPQVYTLPPSRDELTKNQVSLTCLVKGFYPSDIAVEWESNGQPENNYKTTPPVLDSDGSFFLYSKLTVDKSRWQQGNVFSCSVMHEALHNHYTQESLSLSP light: not shown | 200 | – | –
IL6R-BP209/IL6R-L (antibody, human IgG1, kappa, name in EU numbering, IgG1; alterations on IL6R-B3, EU numbering) heavy: QVQLQESGPGLVKPSETLSLTCAVSGHSISHDHAWSWVRQPPGEGLEWIGFISYSGITNYNPSLQGRVTISRDNSKNTLYLQMNSLRAEDTAVYYCARSLARTTAMDYWGEGTLVTVSSASTKGPSVFPLAPSSKSTSGGTAALGCLVKDYFPEPVTVSWNSGALTSGVHTFPAVLQSSGLYSLSSVVTVPSSSLGTQTYICNVNHKPSNTKVDKKVEPKSCDKTHTCPPCPAPELLGDDSVFLFPPKPKDTLMISRTPEVTCVVVDVSDEDGEVKFNWYVDGVEVHNAKTKPREEQYNSTYRVVSVLTVLHQDWLNGKEYKCKVSNAALPRPIEKTISKAKGQPREPQVYTLPPSRDELTKNQVSLTCLVKGFYPSDIAVEWESNGQPENNYKTTPPVLDSDGSFFLYSKLTVDKSRWQQGNVFSCSVMHEALHNHYTQESLSLSP light: not shown | 51 | 39 | –
IL6R-BP237/IL6R-L (antibody, human IgG1, kappa, name in EU numbering, IgG1; alterations on IL6R-B3, EU numbering) heavy: QVQLQESGPGLVKPSETLSLTCAVSGHSISHDHAWSWVRQPPGEGLEWIGFISYSGITNYNPSLQGRVTISRDNSKNTLYLQMNSLRAEDTAVYYCARSLARTTAMDYWGEGTLVTVSSASTKGPSVFPLAPSSKSTSGGTAALGCLVKDYFPEPVTVSWNSGALTSGVHTFPAVLQSSGLYSLSSVVTVPSSSLGTQTYICNVNHKPSNTKVDKKVEPKSCDKTHTCPPCPAPDYLGDDSVFLFPPKPKDTLMISRTPEVTCVVVDVQDEDGEVKFNWYVDGVEVHNAKTKPREEQDNSTYRVVSVLTVLHQDWLNGKEYKCKVSNAALPKPIEKTISKAKGQPREPQVYTLPPSRDELTKNQVSLTCLVKGFYPSDIAVEWESNGQPENNYKTTPPVLDSDGSFFLYSKLTVDKSRWQQGNVFSCSVMHEALHNHYTQESLSLSP light: not shown | 100 | – | –
IL6R-BP239/IL6R-L (antibody, human IgG1, kappa, name in EU numbering, IgG1; alterations on IL6R-B3, EU numbering) heavy: QVQLQESGPGLVKPSETLSLTCAVSGHSISHDHAWSWVRQPPGEGLEWIGFISYSGITNYNPSLQGRVTISRDNSKNTLYLQMNSLRAEDTAVYYCARSLARTTAMDYWGEGTLVTVSSASTKGPSVFPLAPSSKSTSGGTAALGCLVKDYFPEPVTVSWNSGALTSGVHTFPAVLQSSGLYSLSSVVTVPSSSLGTQTYICNVNHKPSNTKVDKKVEPKSCDKTHTCPPCPAPDYLGDDSVFLFPPKPKDTLMISRTPEVTCVVVDVQDEDGEVKFNWYVDGVEVHNAKTKPREEQDNSTYRVVSVLTVLHQDWLNGKEYKCKVSNAALPRPIEKTISKAKGQPREPQVYTLPPSRDELTKNQVSLTCLVKGFYPSDIAVEWESNGQPENNYKTTPPVLDSDGSFFLYSKLTVDKSRWQQGNVFSCSVMHEALHNHYTQESLSLSP light: not shown | 60 | – | –

The next lines start with the values.

Kd [1] [nM] | Kd [2] [nM] | Kd [3] [nM] | Binder
40 | – | – | IL6R-BP151/IL6R-L (antibody, human IgG1, kappa, name in EU numbering, IgG1; alterations on IL6R-B3, EU numbering) heavy: QVQLQESGPGLVKPSETLSLTCAVSGHSISHDHAWSWVRQPPGEGLEWIGFISYSGITNYNPSLQGRVTISRDNSKNTLYLQMNSLRAEDTAVYYCARSLARTTAMDYWGEGTLVTVSSASTKGPSVFPLAPSSKSTSGGTAALGCLVKDYFPEPVTVSWNSGALTSGVHTFPAVLQSSGLYSLSSVVTVPSSSLGTQTYICNVNHKPSNTKVDKKVEPKSCDKTHTCPPCPAPDYLGDDSVFLFPPKPKDTLMISRTPEVTCVVVDVSHEDPEVKFNWYVDGVEVHNAKTKPREEQYNSTYRVVSVLTVLHQDWLNGKEYKCKVSNAALPRPIEKTISKAKGQPREPQVYTLPPSRDELTKNQVSLTCLVKGFYPSDIAVEWESNGQPENNYKTTPPVLDSDGSFFLYSKLTVDKSRWQQGNVFSCSVMHEALHNHYTQESLSLSP light: not shown
50 | – | 910 | IL6R-BP195/IL6R-L (antibody, human IgG1, kappa, name in EU numbering, IgG1; alterations on IL6R-B3, EU numbering) heavy: QVQLQESGPGLVKPSETLSLTCAVSGHSISHDHAWSWVRQPPGEGLEWIGFISYSGITNYNPSLQGRVTISRDNSKNTLYLQMNSLRAEDTAVYYCARSLARTTAMDYWGEGTLVTVSSASTKGPSVFPLAPSSKSTSGGTAALGCLVKDYFPEPVTVSWNSGALTSGVHTFPAVLQSSGLYSLSSVVTVPSSSLGTQTYICNVNHKPSNTKVDKKVEPKSCDKTHTCPPCPAPDYLGDDSVFLFPPKPKDTLMISRTPEVTCVVVDVSDEDGEVKFNWYVDGVEVHNAKTKPREEQDNSTYRVVSVLTVLHQDWLNGKEYKCKVSNAALPKPIEKTISKAKGQPREPQVYTLPPSRDELTKNQVSLTCLVKGFYPSDIAVEWESNGQPENNYKTTPPVLDSDGSFFLYSKLTVDKSRWQQGNVFSCSVMHEALHNHYTQESLSLSP light: not shown
40 | – | 840 | IL6R-BP201/IL6R-L (antibody, human IgG1, kappa, name in EU numbering, IgG1; alterations on IL6R-B3, EU numbering) heavy: QVQLQESGPGLVKPSETLSLTCAVSGHSISHDHAWSWVRQPPGEGLEWIGFISYSGITNYNPSLQGRVTISRDNSKNTLYLQMNSLRAEDTAVYYCARSLARTTAMDYWGEGTLVTVSSASTKGPSVFPLAPSSKSTSGGTAALGCLVKDYFPEPVTVSWNSGALTSGVHTFPAVLQSSGLYSLSSVVTVPSSSLGTQTYICNVNHKPSNTKVDKKVEPKSCDKTHTCPPCPAPDLLGDDSVFLFPPKPKDTLMISRTPEVTCVVVDVSHEDGEVKFNWYVDGVEVHNAKTKPREEQYNSTYRVVSVLTVLHQDWLNGKEYKCKVSNKALPRPIEKTISKAKGQPREPQVYTLPPSRDELTKNQVSLTCLVKGFYPSDIAVEWESNGQPENNYKTTPPVLDSDGSFFLYSKLTVDKSRWQQGNVFSCSVMHEALHNHYTQESLSLSP light: not shown
40 | – | – | IL6R-BP228/IL6R-L (antibody, human IgG1, kappa, name in EU numbering, IgG1; alterations on IL6R-B3, EU numbering) heavy: QVQLQESGPGLVKPSETLSLTCAVSGHSISHDHAWSWVRQPPGEGLEWIGFISYSGITNYNPSLQGRVTISRDNSKNTLYLQMNSLRAEDTAVYYCARSLARTTAMDYWGEGTLVTVSSASTKGPSVFPLAPSSKSTSGGTAALGCLVKDYFPEPVTVSWNSGALTSGVHTFPAVLQSSGLYSLSSVVTVPSSSLGTQTYICNVNHKPSNTKVDKKVEPKSCDKTHTCPPCPAPEYLGDDSVFLFPPKPKDTLMISRTPEVTCVVVDVQDEDGEVKFNWYVDGVEVHNAKTKPREEQYNSTYRVVSVLTVLHQDWLNGKEYKCKVSNDALPRPIEKTISKAKGQPREPQVYTLPPSRDELTKNQVSLTCLVKGFYPSDIAVEWESNGQPENNYKTTPPVLDSDGSFFLYSKLTVDKSRWQQGNVFSCSVMHEALHNHYTQESLSLSP light: not shown
